Reference: PMC10801580 (2024)

B1: humanized 9-8F2-B11, VH3VL3 combination (antibody, V domains shown)
VH: QVQLVQSGAEVKKPGASVKVSCKASGFNIKETYVHWVRQAPGQGLEWMGRIDPAIGDSEYAQKFQGRVTMTRDTSISTAYMELSRLRSDDTAVYYCARTWGPFFDFWGQGTLVTVSS
VL: DIVMTQTPLSLSVTPGQPASISCKSSQSLLHSHGNTFLHWYLQKPGQSPQVLIYKVSSRFSGVPDRFSGSGSGTDFTLKISRVEAEDVGVYYCSQSTHVPYTFGQGTKLEIK
B2: murine 9-8F2-B11 (antibody, V domains shown)
VH: EVQLQQSGAELVKPGASVKLSCTASGFNIKETYVHWVKQRPEQGLEWIGRIDHAIGDSEYDPKFQGKATVTADTSSNTAYLQLSRLTSEDTAVYYCARTWGPFFDFWGQGTTVTVSS
VL: DVVMTQTPLSLPVSLGDQASISCRSSQSLVHSHGNTFLHWYLQKPGQSPKVLIYKVSSRFSGVPDRFSGSGAGTDFTLKISRVEAEDLGVYFCSQSTHVPYTFGGGTKLEIK

Legend:
[1] = target: T1, WT RBD-6xHis (receptor-binding domain of the SARS-CoV-2 spike protein) (SARS-CoV-2, UniProt P0DTC2); assay: BLI
[2] = target: T1, WT RBD-6xHis (receptor-binding domain …); assay: ELISA

Binder | Kd [1] [nM] | EC50 [2] [ng/mL]
B1 | 2.26 | –
B2 | 0.913 | 0.0137
